This is an account of results in paper PMC2192906.

The target in assay [1] is biotinylated L^d–QL9 complex (immobilised on the chip) (UniProt Q60597). The assay is described as follows: SPR.
The target in assay [2] is QL9/L^d complex on the surface of T2-L^d cells (UniProt Q60597). Briefly: radioligand binding.
In assay [3] the target is 2C scTCR 102/55 double mutant (αS102A, βT55A) (mouse). The assay is described as follows: SPR.
Assay [4] deals with 2C single-chain TCR (scTCR), wild-type, thioredoxin fusion (mouse). Briefly: SPR.
In assay [5] the target is 2C scTCR 102/55 double mutant (αS102A, βT55A) (mouse). The assay is described as follows: SPR. The source holds these as a separate data set.

Read-outs that look alike come from different tables or passages of the source.

Regarding “2C scTCR 102/55 double mutant (αS102A, βT55A)”, in assay [1], the equilibrium dissociation constant (Kd) came out at 700 nM. Besides, the fold better than wild-type (IC50 ratio) in assay [2] came out at 2.3 fold.
With “2C scTCR 102/56 double mutant (αS102A, βE56A)”, the ΔΔG against wild-type in assay [2] is -0.32 kcal/mol.
With 2C scTCR αS51P mutant (Vα3.2-like), in assay [2], the fold reduced against wild-type (IC50 ratio) is 15 fold.
In turn, 2C scTCR αS102A mutant registered a ΔΔG against wild-type in assay [2] of -0.31 kcal/mol.
On the same count and under the same terms, with 2C scTCR βE56A mutant the figure was -0.11 kcal/mol.
Still for that read-out and setting: the same measure for 2C scTCR βE56K mutant: 1.06 kcal/mol.
Same read-out and setting: the same measure for 2C scTCR βT55A mutant: -0.23 kcal/mol.
In assay [1], “2C single-chain TCR (scTCR), wild-type, thioredoxin fusion” showed a Kd of 1900 nM.
For “purified soluble L^d–QL9 complex (from UniProt Q60597 41-1023) (peptide-MHC)”, the dissociation constant Kd in assay [3] worked out at 1200 nM; in assay [4], 1900 nM; in assay [5], 2400 nM. In assay [5], the koff of wild-type over koff of 102/55 (fold faster) amounted to 3.2 fold. The kon of wild-type over kon of 102/55 (fold faster) in assay [5] worked out at 2.4 fold.
